The values below come from patent US20230375528.

Data set [1] addresses ENO1 wild type (Enolase 1) (Homo sapiens) (UniProt P06733). The data set can be described thus: EMSA.
For data set [2], the target named is ENO1down (ENO1-K343A) (Homo sapiens) (UniProt P06733). The data set can be described thus: EMSA. The conditions noted are these: competition EMSA.
ENO1down (ENO1-K343A) (Homo sapiens), sequence (P06733 whole entry K343A): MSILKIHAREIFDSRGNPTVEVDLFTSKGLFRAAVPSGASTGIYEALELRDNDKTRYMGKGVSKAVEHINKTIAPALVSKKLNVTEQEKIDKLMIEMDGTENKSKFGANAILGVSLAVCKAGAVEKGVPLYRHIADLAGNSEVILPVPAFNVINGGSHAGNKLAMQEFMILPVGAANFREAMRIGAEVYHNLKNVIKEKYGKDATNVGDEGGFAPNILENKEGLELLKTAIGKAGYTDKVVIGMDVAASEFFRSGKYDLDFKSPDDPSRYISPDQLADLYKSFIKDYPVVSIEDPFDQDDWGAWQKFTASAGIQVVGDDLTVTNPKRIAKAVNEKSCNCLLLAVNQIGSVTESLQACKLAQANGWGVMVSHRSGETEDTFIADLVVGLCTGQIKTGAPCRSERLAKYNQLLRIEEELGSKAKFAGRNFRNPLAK

ENO1 wild type (Enolase 1) (Homo sapiens), sequence (P06733 2-434): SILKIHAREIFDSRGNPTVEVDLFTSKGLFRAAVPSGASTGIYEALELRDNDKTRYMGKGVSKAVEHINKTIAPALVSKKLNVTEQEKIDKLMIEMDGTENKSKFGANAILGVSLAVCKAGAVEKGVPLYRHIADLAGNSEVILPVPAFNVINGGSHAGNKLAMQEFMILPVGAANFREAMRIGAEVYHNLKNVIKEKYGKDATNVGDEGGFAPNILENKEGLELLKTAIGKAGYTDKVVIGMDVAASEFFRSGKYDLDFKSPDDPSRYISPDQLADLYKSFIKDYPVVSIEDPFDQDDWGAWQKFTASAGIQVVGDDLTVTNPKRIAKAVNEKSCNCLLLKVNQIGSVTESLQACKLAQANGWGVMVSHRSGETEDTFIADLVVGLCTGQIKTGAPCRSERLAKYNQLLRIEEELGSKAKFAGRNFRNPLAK

Take PABPC1 5'UTR target 35-mer RNA: the Ki in data set [1] (competition EMSA with labelled PABPC1 target 35-mer probe) came out at 27 nM; in data set [2] (about 5-10-fold decreased RNA binding vs wt) it was 224 nM.

Consider “PABPC1 control 35-mer RNA (GC-matched, downstream of binding site)”, for which the Ki in data set [1] (competition EMSA with labelled PABPC1 target probe) came out at 2590 nM; in data set [2], 3260 nM.
